Assays:
[1] = target: cyp C:p77 complex (cyp C-GST fusion protein and 77Kd protein) (Mus musculus, UniProt P30412)
Experimental: (§1) FIG. 6. […] Control samples were incubated with 10 μg of GST. Experimental samples were incubated with 10 μg of cyp C-GST fusion protein plus the indicated drug concentration.
(§2) 10^7 TCA precipitable counts of labeled lysate were used per reaction. Reaction volumes were brought up to 1 ml in lysis buffer. Each reaction was precleared by incubation with 10 μg of glutathione-s-transferase (GST) and 100 μl of 50% glu-ag solution for 2 hours at 4° C. with gentle agitation. Reactions were spun 5 minutes in a microfuge at 4° C., and the pellets were discarded. To the precleared lysates, 10 μg of cyp C fusion protein was added, along with 30 μl of a 50% solution of glu-ag. Reactions were incubated at 4° with gentle agitation for 3-4 hours, at which time tubes were spun 5 minutes in a microfuge at 4° C., and the supernatants were removed. Glu-ag pellets were washed 4× with 1 ml of cold lysis buffer, being transferred to a fresh tube for the final wash. […], and the pellet was resuspended in 50- 100 μl of SDS-PAGE sample buffer containing β-mercaptoethanol. Samples were boiled 5 minutes and loaded onto 9.5% SDS-PAGE gels. Gels were stained/fixed in methanol: acetic acid: coomassie blue, and destained in methanol: acetic acid.

[2] = target: cyp C-GST fusion protein (glutathione-s-transferase fused to aa 16-212 of murine cyclophilin C), without CsA (murine)
cyp C mRNA in AC 6 cells = assay: Northern analysis of cyp C mRNA in AC 6 cells; assay type: cell-based, murine
Experimental: Purified inserts were labeled by random priming in the presence of 50 μCi [alpha-32P] dCTP (Amersham) and were purified by chromatography over a Sephadex G-50 column. […] RNA was blotted onto nitrocellulose filters and prehybridized and hybridized in a solution containing 50% formamide, 6×SSC, 5×Denhardt's solution, 5 mM NaPO4, 100 ug/ml sheared, denatured salmon sperm DNA, and 50 ug/ml yeast tRNA. Labeled cDNA probe, prepared as described above, was hybridized for 16 hours at 45° C. for 30 minutes, followed by washing in 0.2×SSC plus 0.1% SDS at 65° C. for 30 minutes. Filters were then placed on film for autoradiographic visualization.
Twenty μg of total RNA from each source was run on a 1.2% agarose formaldehyde gel and blotted onto Genescreen (DuPont) membrane. Filters were hybridized as described above for 18 hours. The final wash conditions were 0.2×SSC, 0.1% SDS at 65° C. […] The autoradiograms presented in the Figure represent exposures of 3 days at -70° C. with an intensifying screen for both the cyp A and the cyp C probes.

[3] = target: T1, cyp C:CsA:p55 complex (cyp C-GST fusion protein and 55Kd protein) (Mus musculus, UniProt P30412); assay: Cyp C affinity reactions with 35S labeled cell lysate: 55Kd protein; assay type: binding, murine; details: AC 6 cells, 77Kd and 55Kd proteins (FIG. 5)
T1 construct: A portion of the cyp C cDNA encoding aa 16-212 was cloned into the bacterial expression vector pGEX 2T; made in house; host or cells: E. coli MC1061 (cyp C-GST); 55Kd protein from labelled AC 6 cell lysate
T1 sequence (P30412 with tags, fused parts or gaps limits assumed): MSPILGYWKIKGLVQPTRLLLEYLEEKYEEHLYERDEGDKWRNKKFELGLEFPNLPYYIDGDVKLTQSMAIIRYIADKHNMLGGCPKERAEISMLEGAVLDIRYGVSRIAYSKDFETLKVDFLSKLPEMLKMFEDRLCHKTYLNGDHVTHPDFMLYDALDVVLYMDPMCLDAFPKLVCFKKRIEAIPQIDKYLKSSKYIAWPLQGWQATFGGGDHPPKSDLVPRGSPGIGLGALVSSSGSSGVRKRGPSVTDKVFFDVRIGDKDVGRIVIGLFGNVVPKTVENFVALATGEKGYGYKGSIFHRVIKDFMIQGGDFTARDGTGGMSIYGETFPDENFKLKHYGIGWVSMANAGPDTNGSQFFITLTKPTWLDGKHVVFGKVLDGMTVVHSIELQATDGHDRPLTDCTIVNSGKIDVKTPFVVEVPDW
Experimental: as §1, §2

cyp A mRNA in AC 6 cells = assay: Northern analysis of cyp A mRNA in AC 6 cells; assay type: cell-based, murine; details: AC 6 cells (FIG. 3)
Experimental: Individual bacterial colonies containing phagemid vectors which had undergone two rounds of subtraction were cultured, and plasmid miniprep DNA was prepared from them by the NaOH/SDS, NaAcetate method. cDNA inserts were isolated by digestion of the plasmid DNA with Stu 1 and Hd III followed by low-melt agarose gel electrophoresis. Inserts were visualized by UV light and excised and purified by organic extraction and precipitation for use as templates for ^32 p probe synthesis. Purified inserts were labeled by random priming in the presence of 50 μCi [alpha-32P] dCTP (Amersham) and were purified by chromatography over a Sephadex G-50 column. AC 6MRNA prepared from IL-1 induced and uninduced cultures was electrophoresed on 1.0% formaldehyde-agarose gels using 0.5 μg RNA/lane as described (Sambrook, 1989). RNA was blotted onto nitrocellulose filters and prehybridized and hybridized in a solution containing 50% formamide, 6×SSC, 5×Denhardt's solution, 5 mM NaPO4, 100 ug/ml sheared, denatured salmon sperm DNA, and 50 ug/ml yeast tRNA. Labeled cDNA probe, prepared as described above, was hybridized for 16 hours at 45° C. […], followed by washing in 0.2×SSC plus 0.1% SDS at 65° C. for 30 minutes. Filters were then placed on film for autoradiographic visualization. […]

Sequence of cyp C:p77 complex (cyp C-GST fusion protein and 77Kd protein) (P30412 with tags, fused parts or gaps limits assumed): as above

C=CC[C@@H]1/C=C(\C)C[C@H](C)C[C@H](OC)[C@H]2O[C@@](O)(C(=O)C(=O)N3CCCC[C@H]3C(=O)O[C@H](/C(C)=C/[C@@H]3CC[C@@H](O)[C@H](OC)C3)[C@H](C)[C@@H](O)CC1=O)[C@H](C)C[C@@H]2OC [FK506]
effect on the binding of cyp C to the 77Kd protein [1]: no effect

cyclosporin A (peptide)
CsA concentration that completely inhibits the isomerase activity of cyp C [2]: 2 µg/mL

IL-1: hematopoietic and inflammatory cytokine; unpurified recombinant human IL-1 alpha used for induction of AC 6 cells
elevation of cyp C mRNA in response to IL-1 (cyp C mRNA in AC 6 cells; AC 6 cells (FIG. 3)): elevated approximately three-fold | induction of cyp C message levels (cyp C mRNA in AC 6 cells; AC 6 stromal cell line treated with IL-1): 2-3 fold | effect of IL-1 in the culture media during metabolic labeling on the associating proteins [3]: no obvious effect | elevation of cyp A mRNA in response to IL-1 (cyp A mRNA in AC 6 cells): elevated approximately three-fold
